Laboratory results as given in patent US20100291088A1 (published 2010).

Biological target: (4C/A)-huIL-18 (human, UniProt Q14116 37-193)
Assay: cell-based or functional assay

B1: IL-18BP-Fc (Fc fusion, UniProt O95998 31-194, looked up, not shown: a dimerising Fc or GST)
chain: TPVSQTTTAATASVRSTKDPCPSQPPVFPAAKQCPALEVTWPEVEVPLNGTLSLSCVACSRFPNFSILYWLGNGSFIEHLPGRLWEGSTSRERGSTGTQLCKALVLEQLTPALHSTNFSCVLVDPEQVVQRHVVLAQLWAGLRATLPPTQEALPSSHSSPQQQG
  KG-1 neutralization potency in vitro (IC50, nM): 0.03 nM
